Six molecules from US20190077860A1 (EISAI R AND D MANAGEMENT, published 2019) can be followed below.

For experiment [1], the target named is T1, human EphA4 extracellular region-SEAP-His protein (human, UniProt P54764 20-547).
T1 construct: also called hEphA4-SEAP-His
Kind of experiment: ELISA.

The target in experiment [2] is T2, human EphA8 extracellular region-SEAP-His protein (human, UniProt P29322 28-542).
T2 construct: extracellular domain; also called hEphA8-SEAP-His
T2 sequence (looked up): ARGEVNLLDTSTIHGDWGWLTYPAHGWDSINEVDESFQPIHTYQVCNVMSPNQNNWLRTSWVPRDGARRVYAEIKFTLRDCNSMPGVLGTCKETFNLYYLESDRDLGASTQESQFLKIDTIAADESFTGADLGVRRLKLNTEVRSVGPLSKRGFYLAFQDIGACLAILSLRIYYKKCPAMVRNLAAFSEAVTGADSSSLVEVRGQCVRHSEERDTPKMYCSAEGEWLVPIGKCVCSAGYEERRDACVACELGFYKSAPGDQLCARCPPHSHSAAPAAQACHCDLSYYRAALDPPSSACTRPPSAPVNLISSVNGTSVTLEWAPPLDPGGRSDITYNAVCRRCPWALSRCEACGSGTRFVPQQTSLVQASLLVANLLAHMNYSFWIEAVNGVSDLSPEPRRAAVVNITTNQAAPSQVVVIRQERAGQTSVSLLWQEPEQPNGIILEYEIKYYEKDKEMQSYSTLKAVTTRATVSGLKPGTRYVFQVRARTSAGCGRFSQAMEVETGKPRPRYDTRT
Put plainly: ELISA.

The target in experiment [3] is T1, human EphA4 extracellular …. Put plainly: competition ELISA, competitor human Ephrin A5-Fc. The method in brief: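 Ligand binding to captured receptor measured as A450 after HRP-streptavidin/TMBZ development and acid stop. Receptor fusion (10 nM final) was immobilised via anti-alkaline phosphatase antibody; biotinylated Ephrin A5-Fc (0.7 nM final) added together with antibody titrations from 0 to 3000 nM, 1 h, room temperature.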

Experiment [4] has the same target. Kind of experiment: SPR, Ab captured. The method in brief: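 Affinity (KD=kd/ka) obtained by fitting SPR curves to a 1:1 model. Analyte was human EphA4 extracellular region-SEAP-His, injected sequentially from 0.6 to 50 nM in HBS-EP (120 s on, 900 s off), onto humanized antibodies on protein A or antibody A on anti-mouse IgG1 surfaces, capture level about 30–60 RU.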

T1 sequence (P54764 20-547): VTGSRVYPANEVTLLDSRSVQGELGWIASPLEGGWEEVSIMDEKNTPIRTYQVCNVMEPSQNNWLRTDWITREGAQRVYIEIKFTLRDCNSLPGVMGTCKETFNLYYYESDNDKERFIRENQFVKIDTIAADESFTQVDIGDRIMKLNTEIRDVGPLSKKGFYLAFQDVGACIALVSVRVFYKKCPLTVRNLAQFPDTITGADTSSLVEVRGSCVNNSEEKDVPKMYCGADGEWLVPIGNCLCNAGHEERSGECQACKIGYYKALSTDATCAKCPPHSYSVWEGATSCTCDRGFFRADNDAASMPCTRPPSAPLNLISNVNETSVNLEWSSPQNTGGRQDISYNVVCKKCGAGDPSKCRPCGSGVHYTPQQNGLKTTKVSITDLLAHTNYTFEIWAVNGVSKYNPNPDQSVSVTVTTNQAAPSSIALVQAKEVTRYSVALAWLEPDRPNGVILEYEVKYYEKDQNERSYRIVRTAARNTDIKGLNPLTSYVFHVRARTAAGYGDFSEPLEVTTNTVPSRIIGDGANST

B1: humanized antibody No. 143 (antibody, human IgG2)
heavy: QIQLVQSGSELKKPGASVKVSCKASGYTFTDYSMHWVRQAPGQGLKWMGWINTETGEPTYADDFKGRFVFSLDTSVSTAYLQISSLKAEDTAVYYCARIPLYYYGSRYWYFDVWGQGTTVTVSSASTKGPSVFPLAPSSRSTSESTAALGCLVKDYFPEPVTVSWNSGALTSGVHTFPAVLQSSGLYSLSSVVTVPSSNFGTQTYTCNVDHKPSNTKVDKTVERKSCVECPPCPAPPAAAPSVFLFPPKPKDTLMISRTPEVTCVVVDVSHEDPEVQFNWYVDGVEVHNAKTKPREEQFNSTFRVVSVLTVVHQDWLNGKEYKCKVSNKGLPAPIEKTISKTKGQPREPQVYTLPPSREEMTKNQVSLTCLVKGFYPSDIAVEWESNGQPENNYKTTPPMLDSDGSFFLYSKLTVDKSRWQQGNVFSCSVMHEALHNHYTQKSLSLSPG
light: DIQMTQSPSSLSASVGDRVTITCRASENIYRNLAWYQQKPGKAPKLLVYAATNLADGVPSRFSGSGSGTDYTLTISSLQPEDFATYYCQHFWGTPWTFGQGTKVEIKRTVAAPSVFIFPPSDEQLKSGTASVVCLLNNFYPREAKVQWKVDNALQSGNSQESVTEQDSKDSTYSLSSTLTLSKADYEKHKVYACEVTHQGLSSPVTKSFNRGEC
notes: human Ig kappa; also called L1-4/HK4
In the case of B1, the “A450 as % of hEphA4-SEAP-His” value in experiment [1] worked out at 100%. Besides, in experiment [2], the “A450 as % of hEphA4-SEAP-His” value turned out to be 6%. In experiment [3], this molecule returned an IC50 of 5.3 nM. In addition, in experiment [4], the affinity, expressed as Kd, was 1.5 nM; the koff came out at 0.00051 s⁻¹; the kon turned out to be 350000 M⁻¹ s⁻¹.

B2: humanized antibody No. 152 (antibody, human IgG2)
heavy: QVQLVQSGSELKKPGASVKVSCKASGYTFTDYSMHWVRQAPGQGLEWMGWINTETGEPTYAQGFTGRFVFSLDTSVSTAYLQISSLKAEDTAVYYCARIPLYYYGSRYWYFDVWGQGTTVTVSSASTKGPSVFPLAPSSRSTSESTAALGCLVKDYFPEPVTVSWNSGALTSGVHTFPAVLQSSGLYSLSSVVTVPSSNFGTQTYTCNVDHKPSNTKVDKTVERKSCVECPPCPAPPAAAPSVFLFPPKPKDTLMISRTPEVTCVVVDVSHEDPEVQFNWYVDGVEVHNAKTKPREEQFNSTFRVVSVLTVVHQDWLNGKEYKCKVSNKGLPAPIEKTISKTKGQPREPQVYTLPPSREEMTKNQVSLTCLVKGFYPSDIAVEWESNGQPENNYKTTPPMLDSDGSFFLYSKLTVDKSRWQQGNVFSCSVMHEALHNHYTQKSLSLSPG
light: DIQMTQSPSSLSASVGDRVTITCRASENIYRNLAWYQQKPGKAPKLLLYAATNLADGVPSRFSGSGSGTDYTLTISSLQSEDFATYYCQHFWGTPWTFGQGTKVEIKRTVAAPSVFIFPPSDEQLKSGTASVVCLLNNFYPREAKVQWKVDNALQSGNSQESVTEQDSKDSTYSLSSTLTLSKADYEKHKVYACEVTHQGLSSPVTKSFNRGEC
notes: human Ig kappa; also called L1-5/HA1
As for B2, in experiment [1], the “A450 as % of hEphA4-SEAP-His” value was found to be 100%. Besides, the “A450 as % of hEphA4-SEAP-His” value in experiment [2] turned out to be 6%. In experiment [3], this molecule came in with an IC50 of 2 nM. In experiment [4], the Kd was found to be 2 nM, the koff is 0.00082 s⁻¹ and the kon stood at 400000 M⁻¹ s⁻¹.

B3: humanized antibody No. 151 (antibody, human IgG2)
heavy: QIQLVQSGSELKKPGASVKVSCKASGYTFTDYSMHWVRQAPGQGLKWMGWINTETGEPTYAQGFTGRFVFSLDTSVSTAYLQISSLKAEDTAVYYCARIPLYYYGSRYWYFDVWGQGTTVTVSSASTKGPSVFPLAPSSRSTSESTAALGCLVKDYFPEPVTVSWNSGALTSGVHTFPAVLQSSGLYSLSSVVTVPSSNFGTQTYTCNVDHKPSNTKVDKTVERKSCVECPPCPAPPAAAPSVFLFPPKPKDTLMISRTPEVTCVVVDVSHEDPEVQFNWYVDGVEVHNAKTKPREEQFNSTFRVVSVLTVVHQDWLNGKEYKCKVSNKGLPAPIEKTISKTKGQPREPQVYTLPPSREEMTKNQVSLTCLVKGFYPSDIAVEWESNGQPENNYKTTPPMLDSDGSFFLYSKLTVDKSRWQQGNVFSCSVMHEALHNHYTQKSLSLSPG
light: DIQMTQSPSSLSASVGDRVTITCRASENIYRNLAWYQQKPGKAPKLLLYAATNLADGVPSRFSGSGSGTDYTLTISSLQSEDFATYYCQHFWGTPWTFGQGTKVEIKRTVAAPSVFIFPPSDEQLKSGTASVVCLLNNFYPREAKVQWKVDNALQSGNSQESVTEQDSKDSTYSLSSTLTLSKADYEKHKVYACEVTHQGLSSPVTKSFNRGEC
notes: human Ig kappa; also called L1-5/HA4
B3: in experiment [1], the “A450 as % of hEphA4-SEAP-His” value is 100%. For the same molecule, the “A450 as % of hEphA4-SEAP-His” value in experiment [2] is 6.9%. Moreover, in experiment [3], the IC50 worked out at 2 nM. In experiment [4], this molecule showed a Kd of 1.7 nM, a koff of 0.00053 s⁻¹ and a kon of 320000 M⁻¹ s⁻¹.

B4: humanized antibody No. 144 (antibody, human IgG2)
heavy: QVQLVQSGSELKKPGASVKVSCKASGYTFTDYSMHWVRQAPGQGLEWMGWINTETGEPTYADDFKGRFVFSLDTSVSTAYLQISSLKAEDTAVYYCARIPLYYYGSRYWYFDVWGQGTTVTVSSASTKGPSVFPLAPSSRSTSESTAALGCLVKDYFPEPVTVSWNSGALTSGVHTFPAVLQSSGLYSLSSVVTVPSSNFGTQTYTCNVDHKPSNTKVDKTVERKSCVECPPCPAPPAAAPSVFLFPPKPKDTLMISRTPEVTCVVVDVSHEDPEVQFNWYVDGVEVHNAKTKPREEQFNSTFRVVSVLTVVHQDWLNGKEYKCKVSNKGLPAPIEKTISKTKGQPREPQVYTLPPSREEMTKNQVSLTCLVKGFYPSDIAVEWESNGQPENNYKTTPPMLDSDGSFFLYSKLTVDKSRWQQGNVFSCSVMHEALHNHYTQKSLSLSPG
light: DIQMTQSPSSLSASVGDRVTITCRASENIYRNLAWYQQKPGKAPQLLLYAATNLADGVPSRFSGSGSGTDYTLTISSLQPEDFATYYCQHFWGTPWTFGQGTKVEIKRTVAAPSVFIFPPSDEQLKSGTASVVCLLNNFYPREAKVQWKVDNALQSGNSQESVTEQDSKDSTYSLSSTLTLSKADYEKHKVYACEVTHQGLSSPVTKSFNRGEC
notes: human Ig kappa; also called L1-6/HK1
For B4, the “A450 as % of hEphA4-SEAP-His” value in experiment [1] worked out at 100%. For the same molecule, the “A450 as % of hEphA4-SEAP-His” value in experiment [2] came to 5.8%. Moreover, in experiment [3], the IC50 stood at 3.6 nM. In experiment [4], this molecule gave a Kd of 2 nM, a koff of 0.00078 s⁻¹ and a kon of 400000 M⁻¹ s⁻¹.

B5: humanized antibody No. 145 (antibody, human IgG2)
heavy: QVQLVQSGSELKKPGASVKVSCKASGYTFTDYSMHWVRQAPGQGLKWMGWINTETGEPTYADDFKGRFVFSLDTSVSTAYLQISSLKAEDTAVYYCARIPLYYYGSRYWYFDVWGQGTTVTVSSASTKGPSVFPLAPSSRSTSESTAALGCLVKDYFPEPVTVSWNSGALTSGVHTFPAVLQSSGLYSLSSVVTVPSSNFGTQTYTCNVDHKPSNTKVDKTVERKSCVECPPCPAPPAAAPSVFLFPPKPKDTLMISRTPEVTCVVVDVSHEDPEVQFNWYVDGVEVHNAKTKPREEQFNSTFRVVSVLTVVHQDWLNGKEYKCKVSNKGLPAPIEKTISKTKGQPREPQVYTLPPSREEMTKNQVSLTCLVKGFYPSDIAVEWESNGQPENNYKTTPPMLDSDGSFFLYSKLTVDKSRWQQGNVFSCSVMHEALHNHYTQKSLSLSPG
light: DIQMTQSPSSLSASVGDRVTITCRASENIYRNLAWYQQKPGKAPKLLLYAATNLADGVPSRFSGSGSGTDYTLTISSLQSEDFATYYCQHFWGTPWTFGQGTKVEIKRTVAAPSVFIFPPSDEQLKSGTASVVCLLNNFYPREAKVQWKVDNALQSGNSQESVTEQDSKDSTYSLSSTLTLSKADYEKHKVYACEVTHQGLSSPVTKSFNRGEC
notes: human Ig kappa; also called L1-5/HK2
In the case of B5, the “A450 as % of hEphA4-SEAP-His” value in experiment [1] turned out to be 100%. In experiment [2], the “A450 as % of hEphA4-SEAP-His” value is 6.6%. For the same molecule, the IC50 in experiment [3] was determined as 3.7 nM. In addition, in experiment [4], the Kd was found to be 2 nM, the koff amounted to 0.00065 s⁻¹ and the kon is 330000 M⁻¹ s⁻¹.

B6: humanized antibody No. 153 (antibody, human IgG2)
heavy: QVQLVQSGSELKKPGASVKVSCKASGYTFTDYSMHWVRQAPGQGLKWMGWINTETGEPTYAQGFTGRFVFSLDTSVSTAYLQISSLKAEDTAVYYCARIPLYYYGSRYWYFDVWGQGTTVTVSSASTKGPSVFPLAPSSRSTSESTAALGCLVKDYFPEPVTVSWNSGALTSGVHTFPAVLQSSGLYSLSSVVTVPSSNFGTQTYTCNVDHKPSNTKVDKTVERKSCVECPPCPAPPAAAPSVFLFPPKPKDTLMISRTPEVTCVVVDVSHEDPEVQFNWYVDGVEVHNAKTKPREEQFNSTFRVVSVLTVVHQDWLNGKEYKCKVSNKGLPAPIEKTISKTKGQPREPQVYTLPPSREEMTKNQVSLTCLVKGFYPSDIAVEWESNGQPENNYKTTPPMLDSDGSFFLYSKLTVDKSRWQQGNVFSCSVMHEALHNHYTQKSLSLSPG
light: DIQMTQSPSSLSASVGDRVTITCRASENIYRNLAWYQQKPGKAPKLLLYAATNLADGVPSRFSGSGSGTDYTLTISSLQSEDFATYYCQHFWGTPWTFGQGTKVEIKRTVAAPSVFIFPPSDEQLKSGTASVVCLLNNFYPREAKVQWKVDNALQSGNSQESVTEQDSKDSTYSLSSTLTLSKADYEKHKVYACEVTHQGLSSPVTKSFNRGEC
notes: human Ig kappa; also called L1-5/HA2
As for B6, in experiment [1], the “A450 as % of hEphA4-SEAP-His” value is 100%. Moreover, the “A450 as % of hEphA4-SEAP-His” value in experiment [2] is 6.1%. Also, in experiment [3], the IC50 is 2.3 nM. In experiment [4], binding was characterised by a dissociation constant (Kd) of 2.1 nM, the koff stood at 0.0006 s⁻¹ and the kon was determined as 290000 M⁻¹ s⁻¹.
